From US20080131882A1
Primed or numbered codes have the meaning given here. No end group written: not given here. Biotin′ = not defined here

Columns and labels:
Test in all cases: ELISA, biotinylated peptide on streptavidin plate
[1] = molecular target: RhD162.119G12
[2] = molecular target: RhD202.158E07
[3] = molecular target: RhD305.181E06

B1: PEP162 (peptide)
peptide: CMGYGPRMC-{Biotin′}
modifications: cysteine pairing not given here
- signal-to-noise ratio [1]: 10

B2: PEP202 (peptide)
peptide: CAPRNPYEC-{Biotin′}
modifications: cysteine pairing not given here
- signal-to-noise ratio [2]: 10

B3: PEP305 (peptide)
peptide: CTTLLHFLC
modifications: coupled to Biotin at the C-terminus
- signal-to-noise ratio [3]: 10
